Assay results as given in the supplement of paper PMC12042874.
± gives the uncertainty stated by the source.

Assay: amyloid nucleation score (Sup35N fusion, yeast selection) (log enrichment); library NNK2; higher = more nucleation; inactive = no reads after selection
Method in brief: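 The nucleation score equals the log enrichment of output over input reads from DiMSum, centred on the mode score of non-aggregating sequences. It was computed only for sequences with 100 or more input reads. The reads came from Illumina sequencing of plasmid inserts from psi-negative yeast expressing Sup35N fused to peptides of 20 random codons, induced with 100 μM copper sulfate for 24 hours and grown 7 days at 30°C without adenine and uracil.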

Substance: ARSNFLFRHNILFFVYFITS
- amyloid nucleation score: -1.48 ± 1.1

Substance: ARWLSSAYSMIYEFSLLKSW
- amyloid nucleation score: 0.706 ± 0.74

Substance: ASDRGI
- amyloid nucleation score: 0.532 ± 0.18

Substance: ASDRWMVYLIHVTSCYVLRV
- amyloid nucleation score: -0.062 ± 0.41

Substance: ASELLGYMCDIVASLGVVRY
- amyloid nucleation score: 0.747 ± 0.43

Substance: ASFMPLFGGLGFLQKNEITM
- amyloid nucleation score: 3.7 ± 0.077

Substance: ASGQWGPD
- amyloid nucleation score: -0.67 ± 0.76

Substance: ASGVIDIGYIIVEVVMIFYI
- amyloid nucleation score: -0.697 ± 0.5

Substance: ASITYNACLKPLQM
- amyloid nucleation score: 0.313 ± 0.64

Substance: ASIVNYHFD
- amyloid nucleation score: inactive

Substance: ASLAEKGL
- amyloid nucleation score: -0.497 ± 0.38

Substance: ASLHWKMFLMAFLTASIVHA
- amyloid nucleation score: -0.337 ± 0.55

Substance: ASLSMSLFFALSVA
- amyloid nucleation score: inactive

Substance: ASRKSLPEWLWIAWRHASGT
- amyloid nucleation score: 1.29 ± 0.15

Substance: ASRMPSGVRSFWAKPR
- amyloid nucleation score: 0.321 ± 0.32

Substance: ASRNLMYVHNFSSAGLKVLP
- amyloid nucleation score: 0.178 ± 0.65

Substance: ASSALHRVMVLAVTFFRHSS
- amyloid nucleation score: 0.839 ± 0.41

Substance: ASVILTEPFMQGFSIYVGAG
- amyloid nucleation score: -0.746 ± 0.49

Substance: ASVLTDPGVRSGRLRVCVGQ
- amyloid nucleation score: -0.121 ± 0.35

Substance: ASYLLKVVVYIHLSGSHGVD
- amyloid nucleation score: 4.55 ± 0.068

Substance: ATDADGRLISY
- amyloid nucleation score: 1.31 ± 0.25

Substance: ATFFM
- amyloid nucleation score: -0.011 ± 1.1

Substance: ATGMIPVNLQATIWEVHEVG
- amyloid nucleation score: 2.68 ± 0.21

Substance: ATLGTVRCYRKRAIFFEGHL
- amyloid nucleation score: 1.17 ± 0.45

Substance: ATLNVLDPHFYNMY
- amyloid nucleation score: -0.691 ± 0.41

Substance: ATTFKPAHLSRYMWLATYPV
- amyloid nucleation score: 0.765 ± 0.41

Substance: ATYIGRSNVSRWVVRAMSSS
- amyloid nucleation score: 5.25 ± 0.073

Substance: AVAASLMFYVCFITADIADM
- amyloid nucleation score: 0.859 ± 0.74

Substance: AVHDGFDRNMAIKGTGGRWW
- amyloid nucleation score: 3.79 ± 0.098

Substance: AVIMALNIGWRRRDSGWDGV
- amyloid nucleation score: 5.9 ± 0.083

Substance: AVLLNA
- amyloid nucleation score: 0.181 ± 0.34

Substance: AVMTRFEDVYDCAVSTCKMG
- amyloid nucleation score: -0.363 ± 1

Substance: AVPAVRVNGLHIRNCGYTGP
- amyloid nucleation score: 1.22 ± 0.2

Substance: AVQEEARLALSVEPWSSDSG
- amyloid nucleation score: 1.22 ± 0.28

Substance: AVRELVYDLLASKNFWTSNA
- amyloid nucleation score: 0.932 ± 0.2

Substance: AVRVGGTGFRVRS
- amyloid nucleation score: -0.121 ± 0.48

Substance: AVVGDMGIC
- amyloid nucleation score: -0.511 ± 0.63

Substance: AVVVREAFLLFLKAIERAGI
- amyloid nucleation score: -1.31 ± 0.55

Substance: AWANRMWWAR
- amyloid nucleation score: 4.23 ± 0.074

Substance: AWESNCIVRFKY
- amyloid nucleation score: 4.36 ± 0.089

Substance: AWGRARNVRFYFVLRGESGL
- amyloid nucleation score: 2.79 ± 0.12

Substance: AWKAVY
- amyloid nucleation score: -0.585 ± 0.63

Substance: AWKMVMRLDARPLARFWGDG
- amyloid nucleation score: 5.34 ± 0.092

Substance: AWRMCTV
- amyloid nucleation score: 0.302 ± 0.33

Substance: AWRYWFHTLSLTLKNWTSVF
- amyloid nucleation score: 5.14 ± 0.087

Substance: AYDRIY
- amyloid nucleation score: 0.367 ± 0.74

Substance: AYILAVVCPVVRKIGSQYDE
- amyloid nucleation score: 1.87 ± 0.15

Substance: AYKTSHVWSLYRVHGV
- amyloid nucleation score: 0.41 ± 0.25

Substance: AYLFHLFIIS
- amyloid nucleation score: -0.017 ± 0.48

Substance: AYPVES
- amyloid nucleation score: 1.19 ± 0.23

Substance: AYSGIFTRNAEVYSDIYLQ
- amyloid nucleation score: -0.499 ± 0.76

Substance: AYYYWLGG
- amyloid nucleation score: -0.381 ± 1.1

Substance: CAFYDYGKALPRGNFRLSKM
- amyloid nucleation score: -0.208 ± 1

Substance: CAIFVRERW
- amyloid nucleation score: 5.03 ± 0.089

Substance: CAKLGTSSRFIFE
- amyloid nucleation score: 0.073 ± 1.1

Substance: CARVMLFIMSEMIEFTFYGL
- amyloid nucleation score: 2.89 ± 0.14

Substance: CASVSQGPKQLLPPNVTGLY
- amyloid nucleation score: -0.176 ± 0.45

Substance: CCFGVQVEGT
- amyloid nucleation score: -0.461 ± 0.79

Substance: CCISMDVLWRLSEQP
- amyloid nucleation score: 6.385 ± 0.05

Substance: CCWVSLMRGNRLSTDSSNTL
- amyloid nucleation score: -0.087 ± 0.37

Substance: CDFAIPYYNGPYSQKFLMTS
- amyloid nucleation score: -0.321 ± 0.8

Substance: CDHQRLMTYLVPAGYMPDTM
- amyloid nucleation score: -0.201 ± 0.62

Substance: CDILYLNMFAIFDFFDPVKL
- amyloid nucleation score: inactive

Substance: CDPVSNFCIMLMCFIREYGR
- amyloid nucleation score: 1.99 ± 0.087

Substance: CDTYNFCIL
- amyloid nucleation score: 6.124 ± 0.035

Substance: CDVFMQAKIASVMGYDVQRA
- amyloid nucleation score: -0.225 ± 0.41

Substance: CEFALYAFWCCIYLRFNKYS
- amyloid nucleation score: -0.606 ± 0.44

Substance: CEGCHATKYRVRSWS
- amyloid nucleation score: 1.01 ± 0.31

Substance: CEGNGVFYGLPYSGSDIPNR
- amyloid nucleation score: -0.719 ± 0.61

Substance: CESHVSRWYSVS
- amyloid nucleation score: 0.505 ± 0.27

Substance: CEVFYSVGRSK
- amyloid nucleation score: -0.633 ± 1.1

Substance: CEVLKHSCTDSEMHAKADGV
- amyloid nucleation score: -0.307 ± 0.23

Substance: CFANRNRFFMSLSEHHTFDG
- amyloid nucleation score: -0.798 ± 1.1

Substance: CFCQTCSLSRAKSMEEGCLR
- amyloid nucleation score: -1.08 ± 0.54

Substance: CFEMV
- amyloid nucleation score: -0.886 ± 0.21

Substance: CFESHWCRYPLDGRLGHKEF
- amyloid nucleation score: inactive

Substance: CFFTSYTRA
- amyloid nucleation score: -0.114 ± 0.55

Substance: CFGFYGAIVD
- amyloid nucleation score: 0.023 ± 0.39

Substance: CFGMLS
- amyloid nucleation score: -0.679 ± 1.1

Substance: CFGRGLCVSIGVVRCTGGPC
- amyloid nucleation score: 0.119 ± 0.62

Substance: CFIRFSRMGLFLFCLPKNLQ
- amyloid nucleation score: -1.59 ± 0.53

Substance: CFISQILEFCCSFIFSRDFF
- amyloid nucleation score: 0.286 ± 0.27

Substance: CFMLVFSRTCVSMYTIVNPS
- amyloid nucleation score: 4.59 ± 0.11

Substance: CFNSTDN
- amyloid nucleation score: inactive

Substance: CFRKLQYISFYYTTWVILDA
- amyloid nucleation score: inactive

Substance: CFRLD
- amyloid nucleation score: inactive

Substance: CFSCVFIMDCCRH
- amyloid nucleation score: 7.954 ± 0.062
